Measurements reported in patent US20240270846A1 (published 2024).
Changes are numbered by the printed parent chain. Names and notes keep the numbering of the source. Values belong to the binder of their own block, whether it stands above or below them.

Assays:
[1] = target: T1, CD3 epsilon homodimer protein (UniProt P07766 23-126); experiment: SPR Biacore T200, CD3 epsilon homodimer on CM4 chip, antibody as analyte;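 further: Amine-coupled CD3 epsilon homodimer, run at 25 °C in HBS-EP+ buffer, ratio is bound amount of each single-residue H chain variant over that of the parent antibody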
T1 construct: Immobilized on Sensor chip CM4 by amine coupling; construct not described; also called CD3 (CD3 epsilon)
T1 sequence (P07766 23-126): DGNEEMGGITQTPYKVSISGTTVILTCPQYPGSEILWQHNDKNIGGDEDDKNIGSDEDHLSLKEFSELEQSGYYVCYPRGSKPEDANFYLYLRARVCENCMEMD

[2] = target: T2, CD3 epsilon homodimer protein (UniProt P07766 23-126); experiment: SPR (Biacore T200), CD3 epsilon homodimer on CM4 chip, one-arm antibody as analyte; ratio to unaltered CE115HA000;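 further: surface plasmon resonance run at 25 °C with HBS-EP+ as running buffer, CD3 epsilon homodimer attached by amine coupling, antibody passed over as analyte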
T2 construct: Construct of the homodimer protein is not described; also called CD3 (CD3 epsilon)
T2 sequence (P07766 23-126): as above

B1: CE115HA000 Y97A one-arm antibody (antibody, human IgG1, kappa, L234A L235A, N297A, name in Kabat numbering)
heavy: QVQLVESGGGVVQPGRSLRLSCAASGFTFSNAWMHWVRQAPGKGLEWVAQIKAKSNNYATYYAESVKGRFTISRDDSKNSLYLQMNSLKTEDTAVYYCRYVHAGAYYGVDAWGQGTTVTVSSASTKGPSVFPLAPSSKSTSGGTAALGCLVKDYFPEPVTVSWNSGALTSGVHTFPAVLQSSGLYSLSSVVTVPSSSLGTQTYICNVNHKPSNTKVDKKVEPKSCDKTHTCPPCPAPEAAGGPSVFLFPPKPKDTLMISRTPEVTCVVVDVSHEDPEVKFNWYVDGVEVHNAKTKPREEQYASTYRVVSVLTVLHQDWLNGKEYKCKVSNKALPAPIEKTISKAKGQPREPQVYTLPPSRCELTKNQVSLSCAVKGFYPSDIAVEWESNGQPENNYKTTPPVLDSDGSFFLVSKLTVDKSRWQQGNVFSCSVMHEALHNHYTQKSLSLSPDYKDDDDK
chain: EPKSSDKTHTCPPCPAPELLGGPSVFLFPPKPKDTLMISRTPEVTCVVVDVSHEDPEVKFNWYVDGVEVHNAKTKPREEQYNSTYRVVSVLTVLHQDWLNGKEYKCKVSNKALPAPIEKTISKAKGQPREPQVCTLPPSRDELTKNQVSLWCLVKGFYPSDIAVEWESNGQPENNYKTTPPVLDSDGSFFLYSKLTVDKSRWQQGNVFSCSVMHEALHNRYTQKSLSLSP
light: DIVMTQSPLSLPVTPGEPASISCRSSQSLVHSNRNTYLHWYQQKPGQAPRLLIYKVSNRFSGVPDRFSGSGSGTDFTLKISRVEAEDVGVYYCGQGTQVPYTFGQGTKLEIKRTVAAPSVFIFPPSDEQLKSGTASVVCLLNNFYPREAKVQWKVDNALQSGNSQESVTEQDSKDSTYSLSSTLTLSKADYEKHKVYACEVTHQGLSSPVTKSFNRGEC
notes: one-arm antibody (one Fab)
ratio of amounts bound (Y/X vs CE115HA000) [1]: 0.16

B2: CE115HA000 D101A one-arm antibody (antibody, human IgG1, kappa, L234A L235A, N297A, name in Kabat numbering)
heavy: B1 heavy with A103Y, D110A
chain: B1 chain
light: B1 light
notes: one-arm antibody
KD ratio (KD value of CE115HA000/KD value of the altered form) [2]: 0.86

B3: CE115HA000 A99Q one-arm antibody (antibody, human IgG1, kappa, L234A L235A, N297A, name in Kabat numbering)
heavy: B1 heavy with A103Y, A105Q
chain: B1 chain
light: B1 light
notes: one-arm antibody
KD ratio (KD value of CE115HA000/KD value of the altered form) [2]: 0.85

B4: CE115HA000 A99S one-arm antibody (antibody, human IgG1, kappa, L234A L235A, N297A, name in Kabat numbering)
heavy: B1 heavy with A103Y, A105S
chain: B1 chain
light: B1 light
notes: one-arm antibody
KD ratio (KD value of CE115HA000/KD value of the altered form) [2]: 0.76

B5: CE115HA000 Y100L one-arm antibody (antibody, human IgG1, kappa, L234A L235A, N297A, name in Kabat numbering)
heavy: B1 heavy with A103Y, Y106L
chain: B1 chain
light: B1 light
notes: one-arm antibody (one Fab)
ratio of amounts bound (Y/X vs CE115HA000) [1]: 0.7

B6: CE115HA000 Y97G one-arm antibody (antibody, human IgG1, kappa, L234A L235A, N297A, name in Kabat numbering)
heavy: B1 heavy with A103G
chain: B1 chain
light: B1 light
notes: one-arm antibody (one Fab)
ratio of amounts bound (Y/X vs CE115HA000) [1]: 0.18

B7: CE115HA000 Y100D one-arm antibody (antibody, human IgG1, kappa, L234A L235A, N297A, name in Kabat numbering)
heavy: B1 heavy with A103Y, Y106D
chain: B1 chain
light: B1 light
notes: one-arm antibody (one Fab)
ratio of amounts bound (Y/X vs CE115HA000) [1]: 0.52

B8: CE115HA000 A99F one-arm antibody (antibody, human IgG1, kappa, L234A L235A, N297A, name in Kabat numbering)
heavy: B1 heavy with A103Y, A105F
chain: B1 chain
light: B1 light
notes: one-arm antibody
KD ratio (KD value of CE115HA000/KD value of the altered form) [2]: 1.15

B9: CE115HA000 Y100K one-arm antibody (antibody, human IgG1, kappa, L234A L235A, N297A, name in Kabat numbering)
heavy: B1 heavy with A103Y, Y106K
chain: B1 chain
light: B1 light
notes: one-arm antibody (one Fab)
ratio of amounts bound (Y/X vs CE115HA000) [1]: 1.07

B10: CE115HA000 A99D one-arm antibody (antibody, human IgG1, kappa, L234A L235A, N297A, name in Kabat numbering)
heavy: B1 heavy with A103Y, A105D
chain: B1 chain
light: B1 light
notes: one-arm antibody
KD ratio (KD value of CE115HA000/KD value of the altered form) [2]: 1.03

B14: CE115HA000 A99K one-arm antibody (antibody, human IgG1, kappa, L234A L235A, N297A, name in Kabat numbering)
heavy: B1 heavy with A103Y, A105K
chain: B1 chain
light: B1 light
notes: one-arm antibody
KD ratio (KD value of CE115HA000/KD value of the altered form) [2]: 1.4

B15: CE115HA000 Y97P one-arm antibody (antibody, human IgG1, kappa, L234A L235A, N297A, name in Kabat numbering)
heavy: B1 heavy with A103P
chain: B1 chain
light: B1 light
notes: one-arm antibody (one Fab)
ratio of amounts bound (Y/X vs CE115HA000) [1]: 0.11

B16: CE115HA000 A99T one-arm antibody (antibody, human IgG1, kappa, L234A L235A, N297A, name in Kabat numbering)
heavy: B1 heavy with A103Y, A105T
chain: B1 chain
light: B1 light
notes: one-arm antibody
KD ratio (KD value of CE115HA000/KD value of the altered form) [2]: 0.93

B17: CE115HA000 Y97R one-arm antibody (antibody, human IgG1, kappa, L234A L235A, N297A, name in Kabat numbering)
heavy: B1 heavy with A103R
chain: B1 chain
light: B1 light
notes: one-arm antibody (one Fab)
ratio of amounts bound (Y/X vs CE115HA000) [1]: 0.27

B18: CE115HA000 Y100Q one-arm antibody (antibody, human IgG1, kappa, L234A L235A, N297A, name in Kabat numbering)
heavy: B1 heavy with A103Y, Y106Q
chain: B1 chain
light: B1 light
notes: one-arm antibody (one Fab)
ratio of amounts bound (Y/X vs CE115HA000) [1]: 0.8

B22: CE115HA000 Y97D one-arm antibody (antibody, human IgG1, kappa, L234A L235A, N297A, name in Kabat numbering)
heavy: B1 heavy with A103D
chain: B1 chain
light: B1 light
notes: one-arm antibody (one Fab)
ratio of amounts bound (Y/X vs CE115HA000) [1]: 0.24

B23: CE115HA000 Y100G one-arm antibody (antibody, human IgG1, kappa, L234A L235A, N297A, name in Kabat numbering)
heavy: B1 heavy with A103Y, Y106G
chain: B1 chain
light: B1 light
notes: one-arm antibody (one Fab)
ratio of amounts bound (Y/X vs CE115HA000) [1]: 1.07

B24: CE115HA000 A99L one-arm antibody (antibody, human IgG1, kappa, L234A L235A, N297A, name in Kabat numbering)
heavy: B1 heavy with A103Y, A105L
chain: B1 chain
light: B1 light
notes: one-arm antibody
KD ratio (KD value of CE115HA000/KD value of the altered form) [2]: 1

B26: CE115HA000 Y100A one-arm antibody (antibody, human IgG1, kappa, L234A L235A, N297A, name in Kabat numbering)
heavy: B1 heavy with A103Y, Y106A
chain: B1 chain
light: B1 light
notes: one-arm antibody (one Fab)
ratio of amounts bound (Y/X vs CE115HA000) [1]: 0.9

B31: CE115HA000 Y97S one-arm antibody (antibody, human IgG1, kappa, L234A L235A, N297A, name in Kabat numbering)
heavy: B1 heavy with A103S
chain: B1 chain
light: B1 light
notes: one-arm antibody (one Fab)
ratio of amounts bound (Y/X vs CE115HA000) [1]: 0.18

B32: CE115HA000 Y100P one-arm antibody (antibody, human IgG1, kappa, L234A L235A, N297A, name in Kabat numbering)
heavy: B1 heavy with A103Y, Y106P
chain: B1 chain
light: B1 light
notes: one-arm antibody (one Fab)
ratio of amounts bound (Y/X vs CE115HA000) [1]: 0.48

Results, then the binder that gave them:

ratio of amounts bound (Y/X vs CE115HA000) [1]: 0.48
B11: CE115HA000 Y100aL one-arm antibody (antibody, human IgG1, kappa, L234A L235A, N297A, name in Kabat numbering)
heavy: B1 heavy with A103Y, Y107L
chain: B1 chain
light: B1 light
notes: one-arm antibody (one Fab)

ratio of amounts bound (Y/X vs CE115HA000) [1]: 0.6
B12: CE115HA000 Y100V one-arm antibody (antibody, human IgG1, kappa, L234A L235A, N297A, name in Kabat numbering)
heavy: B1 heavy with A103Y, Y106V
chain: B1 chain
light: B1 light
notes: one-arm antibody (one Fab)

ratio of amounts bound (Y/X vs CE115HA000) [1]: 0.31
B13: CE115HA000 Y100aD one-arm antibody (antibody, human IgG1, kappa, L234A L235A, N297A, name in Kabat numbering)
heavy: B1 heavy with A103Y, Y107D
chain: B1 chain
light: B1 light
notes: one-arm antibody (one Fab)

ratio of amounts bound (Y/X vs CE115HA000) [1]: 0.56
B19: CE115HA000 Y100aQ one-arm antibody (antibody, human IgG1, kappa, L234A L235A, N297A, name in Kabat numbering)
heavy: B1 heavy with A103Y, Y107Q
chain: B1 chain
light: B1 light
notes: one-arm antibody (one Fab)

ratio of amounts bound (Y/X vs CE115HA000) [1]: 0.64
B20: CE115HA000 Y100aS one-arm antibody (antibody, human IgG1, kappa, L234A L235A, N297A, name in Kabat numbering)
heavy: B1 heavy with A103Y, Y107S
chain: B1 chain
light: B1 light
notes: one-arm antibody (one Fab)

ratio of amounts bound (Y/X vs CE115HA000) [1]: 1.03
B21: CE115HA000 Y100W one-arm antibody (antibody, human IgG1, kappa, L234A L235A, N297A, name in Kabat numbering)
heavy: B1 heavy with A103Y, Y106W
chain: B1 chain
light: B1 light
notes: one-arm antibody (one Fab)

ratio of amounts bound (Y/X vs CE115HA000) [1]: 0.62
B25: CE115HA000 Y100aA one-arm antibody (antibody, human IgG1, kappa, L234A L235A, N297A, name in Kabat numbering)
heavy: B1 heavy with A103Y, Y107A
chain: B1 chain
light: B1 light
notes: one-arm antibody (one Fab)

ratio of amounts bound (Y/X vs CE115HA000) [1]: 1.23
B27: CE115HA000 Y100aG one-arm antibody (antibody, human IgG1, kappa, L234A L235A, N297A, name in Kabat numbering)
heavy: B1 heavy with A103Y, Y107G
chain: B1 chain
light: B1 light
notes: one-arm antibody (one Fab)

ratio of amounts bound (Y/X vs CE115HA000) [1]: 0.9
B28: CE115HA000 Y100aK one-arm antibody (antibody, human IgG1, kappa, L234A L235A, N297A, name in Kabat numbering)
heavy: B1 heavy with A103Y, Y107K
chain: B1 chain
light: B1 light
notes: one-arm antibody (one Fab)

ratio of amounts bound (Y/X vs CE115HA000) [1]: 0.81
B29: CE115HA000 Y100S one-arm antibody (antibody, human IgG1, kappa, L234A L235A, N297A, name in Kabat numbering)
heavy: B1 heavy with A103Y, Y106S
chain: B1 chain
light: B1 light
notes: one-arm antibody (one Fab)

ratio of amounts bound (Y/X vs CE115HA000) [1]: 0.87
B30: CE115HA000 Y100aF one-arm antibody (antibody, human IgG1, kappa, L234A L235A, N297A, name in Kabat numbering)
heavy: B1 heavy with A103Y, Y107F
chain: B1 chain
light: B1 light
notes: one-arm antibody (one Fab)
